Measurements reported in publication PMC9706017, “Crystal Structure and Molecular Mechanism of Phosphotransbutyrylase from Clostridium acetobutylicum” (Journal of Microbiology and Biotechnology, 2021).

Target: the molecule itself
Assay: crystal structure; apo CaPTB with sulfate ions; crystals from 20% PEG3350, 0.2 M lithium sulfate, 0.1 M HEPES pH 7.5, 20°C; space group P21; 2.9 Å; eight molecules in the asymmetric unit

B1: phosphotransbutyrylase from Clostridium acetobutylicum (enzyme, UniProt P58255 1-301, looked up)
chain: MIKSFNEIIMKVKSKEMKKVAVAVAQDEPVLEAVRDAKKNGIADAILVGDHDEIVSIALKIGMDVNDFEIVNEPNVKKAALKAVELVSTGKADMVMKGLVNTATFLRSVLNKEVGLRTGKTMSHVAVFETEKFDRLLFLTDVAFNTYPELKEKIDIVNNSVKVAHAIGIENPKVAPICAVEVINPKMPSTLDAAMLSKMSDRGQIKGCVVDGPLALDIALSEEAAHHKGVTGEVAGKADIFLMPNIETGNVMYKTLTYTTDSKNGGILVGTSAPVVLTSRADSHETKMNSIALAALVAGNK
notes: phosphotransbutyrylase (phosphate butyryltransferase, PTB) of Clostridium acetobutylicum; Octamer (four dimers) in the crystal and by size-exclusion chromatography; Removal of the tag is not mentioned; also called CaPTB; PTB; source: E. coli BL21(DE3)-T1R, purified (Ni-NTA agarose, Superdex200 size exclusion)
  stoichiometry N: 8
